Data: article PMC2940226 (Neurobiology of disease, 2010)

Target: GABAA receptor γ2 subunit (rat (endogenous in hippocampus), UniProt P18508 39-466)
Assay: co-IP

GABAA receptor γ2 subunit, sequence (P18508 39-466): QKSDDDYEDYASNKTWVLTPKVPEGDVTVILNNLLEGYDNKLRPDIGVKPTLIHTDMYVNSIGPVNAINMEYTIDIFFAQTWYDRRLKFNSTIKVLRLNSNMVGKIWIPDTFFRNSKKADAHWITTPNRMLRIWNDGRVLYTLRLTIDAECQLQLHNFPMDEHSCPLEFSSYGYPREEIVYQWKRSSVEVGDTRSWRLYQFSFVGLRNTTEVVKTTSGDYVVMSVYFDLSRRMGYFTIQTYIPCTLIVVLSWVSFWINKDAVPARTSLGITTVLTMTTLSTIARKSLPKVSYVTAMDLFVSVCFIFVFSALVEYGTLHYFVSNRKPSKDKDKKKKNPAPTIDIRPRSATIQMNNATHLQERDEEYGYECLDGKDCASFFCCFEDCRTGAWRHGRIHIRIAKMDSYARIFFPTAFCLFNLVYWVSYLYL

ratio of the α4-γ2 co-precipitation (normalised α4 to γ2), control animals: 0.55 ± 0.02 | ratio of the α4-γ2 co-precipitation (normalised α4 to γ2), epileptic animals: 1.12 ± 0.24
B1: GABAA receptor α4 subunit (natural protein, rat (endogenous in hippocampus), UniProt P28471 36-552, looked up)
chain: QNSKDEKLCPENFTRILDSLLDGYDNRLRPGFGGPVTEVKTDIYVTSFGPVSDVEMEYTMDVFFRQTWIDKRLKYDGPIEILRLNNMMVTKVWTPDTFFRNGKKSVSHNMTAPNKLFRIMRNGTILYTMRLTISAECPMRLVDFPMDGHACPLKFGSYAYPKSEMIYTWTKGPEKSVEVPKESSSLVQYDLIGQTVSSETIKSITGEYIVMTVYFHLRRKMGYFMIQTYIPCIMTVILSQVSFWINKESVPARTVFGITTVLTMTTLSISARHSLPKVSYATAMDWFIAVCFAFVFSALIEFAAVNYFTNIQMQKAKKKISKPPPEVPAAPVLKEKHTETSLQNTHANLNMRKRTNALVHSESDVNSRTEVGNHSSKTTAAQESSETTPKAHLASSPNPFSRANAAETISAAARGLSSAASPSPHGTLQPAPLRSASARPAFGARLGRIKTTVNTTGVPGNVSATPPPSAPPPSGSGTSKIDKYARILFPVTFGAFNMVYWVVYLSKDTMEKSESLM
